Molecular target: rcan1_mouse Rcan1 (UniProt Q9JHG6)

effect of a mutation on the interaction: disrupting interaction
Substance: Fragile X messenger ribonucleoprotein 1 (Mus musculus) (from UniProt P35922) S499A

From IntAct's records for PubMed 22863780
